# Results taken from PMC9489782.
# Tests used:
# [1] = molecular target: catalytically inactive full-length (FL) PAPP-A (E483A) (human)
# [2] = molecular target: PAPP-A triple mutant L1254A/F1257A/H1211A (human)
# [3] = molecular target: PAPP-A^4C4S (C1112S, C1125S, C1130S and C1135S) (human)
# [4] = molecular target: PAPP-A^1100-1135* (PAPP-A^1100-1135 replaced with PAPP-A2^1125-1162) (human)
# [5] = molecular target: Wild type (WT) PAPP-A (auto-cleaved) (human) (UniProt Q13219); test: SEC-MALS; Superdex200 Increase 10/300 GL in PBS, 0.5 mL/min; PAPP-A and PAPP-A (E483A) 100 uL of 1 mg/mL; PAPP-A2 100 uL of 1, 3 and 6 mg/mL
# [6] = molecular target: Wild type (WT) PAPP-A (auto-cleaved) (human) (UniProt Q13219)
# IGFBP5 K128A (human) = IGFBP5 K128A (human) (UniProt P24593)
# FL IGFBP5 (human) = FL IGFBP5 (human) (UniProt P24593)
# IGFBP5 K128D (human) = IGFBP5 K128D (human) (UniProt P24593)
# [7] = molecular target: Wild type (WT) PAPP-A (auto-cleaved) (human) (UniProt Q13219); test: SEC; Superose 6 Increase 10/300 in 1X PBS, 0.5 mL/min; 0.2 mL of each protein at 1.4 uM; fractions on reduced SDS-PAGE
# [8] = molecular target: N-terminal Alexa Fluor 568 conjugated IGFBP5^121-143 (human); test: fluorescence polarisation; direct binding: 5 nM N-terminal Alexa Fluor 568 IGFBP5^121-143, serial dilutions of WT PAPP-A (5.65 uM to 33 nM), PBS, room temperature, read at 10 min; EC50 of the fit taken as KD
# [9] = molecular target: FAM-labeled FL IGFBP5 (human) (UniProt P24593); test: fluorescence polarisation; direct binding: 5 nM FAM-labeled FL IGFBP5, serial dilutions of PAPP-A (E483A) (10 uM-50 nM), PBS, room temperature, read at 10 min; EC50 of the fit taken as KD
# [10] = molecular target: chimeric PAPP-A^1100-1111* (loop 2 replaced by amino acids 1125-1136 from PAPP-A2) (human)
# PAPP-A (1267), sequence (Q13219 23-1627): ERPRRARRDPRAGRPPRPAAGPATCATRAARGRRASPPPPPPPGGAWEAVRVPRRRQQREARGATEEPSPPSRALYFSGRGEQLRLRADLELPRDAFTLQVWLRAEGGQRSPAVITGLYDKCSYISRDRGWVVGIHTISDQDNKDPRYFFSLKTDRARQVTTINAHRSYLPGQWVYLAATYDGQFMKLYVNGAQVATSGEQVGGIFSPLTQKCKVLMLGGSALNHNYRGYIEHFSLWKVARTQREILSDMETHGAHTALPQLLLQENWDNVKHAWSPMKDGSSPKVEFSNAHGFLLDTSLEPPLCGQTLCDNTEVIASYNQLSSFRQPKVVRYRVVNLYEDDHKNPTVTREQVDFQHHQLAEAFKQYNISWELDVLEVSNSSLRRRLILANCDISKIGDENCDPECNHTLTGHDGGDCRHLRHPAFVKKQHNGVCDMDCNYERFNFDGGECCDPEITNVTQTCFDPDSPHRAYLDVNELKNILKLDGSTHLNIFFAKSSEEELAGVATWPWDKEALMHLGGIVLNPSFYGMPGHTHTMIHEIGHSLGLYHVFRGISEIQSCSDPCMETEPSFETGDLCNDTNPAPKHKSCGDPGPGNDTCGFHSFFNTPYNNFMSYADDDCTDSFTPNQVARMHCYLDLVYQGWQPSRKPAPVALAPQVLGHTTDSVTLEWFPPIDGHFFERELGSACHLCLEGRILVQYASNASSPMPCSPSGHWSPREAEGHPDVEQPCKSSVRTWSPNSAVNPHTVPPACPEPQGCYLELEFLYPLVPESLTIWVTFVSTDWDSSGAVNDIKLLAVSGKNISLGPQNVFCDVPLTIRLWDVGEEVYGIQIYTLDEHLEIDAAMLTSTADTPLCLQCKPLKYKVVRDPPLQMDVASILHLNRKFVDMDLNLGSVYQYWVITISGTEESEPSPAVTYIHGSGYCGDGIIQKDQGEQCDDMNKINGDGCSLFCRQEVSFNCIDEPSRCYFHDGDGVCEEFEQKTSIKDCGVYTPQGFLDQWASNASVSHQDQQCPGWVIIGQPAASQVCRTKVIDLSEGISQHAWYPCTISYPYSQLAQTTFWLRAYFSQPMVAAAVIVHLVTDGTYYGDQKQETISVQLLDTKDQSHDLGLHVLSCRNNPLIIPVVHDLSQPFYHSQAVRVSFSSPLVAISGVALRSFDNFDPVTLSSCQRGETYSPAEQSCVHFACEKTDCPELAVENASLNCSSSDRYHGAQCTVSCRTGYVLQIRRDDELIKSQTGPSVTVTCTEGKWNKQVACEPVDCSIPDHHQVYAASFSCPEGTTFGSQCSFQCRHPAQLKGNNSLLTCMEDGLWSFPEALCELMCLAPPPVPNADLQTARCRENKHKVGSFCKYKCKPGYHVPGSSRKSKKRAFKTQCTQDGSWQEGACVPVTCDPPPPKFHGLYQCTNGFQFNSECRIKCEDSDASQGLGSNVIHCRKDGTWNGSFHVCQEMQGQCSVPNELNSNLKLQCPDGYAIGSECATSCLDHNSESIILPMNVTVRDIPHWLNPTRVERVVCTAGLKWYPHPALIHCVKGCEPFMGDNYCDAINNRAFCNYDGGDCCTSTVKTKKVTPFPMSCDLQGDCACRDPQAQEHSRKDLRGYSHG
substance,measurement,setting,value
C-terminally truncated PAPP-A (1132) (domain or fragment),"EC50 of IGFBP4 cleavage (400 nM IGFBP4/700 nM IGF1) by the co-expressed PAPP-A (FL, E483A)/PAPP-A (1132) heterodimer, gel-based assay, 37 °C, 4 h",[1],0.466 nM
PAPP-A (1267) (domain or fragment),"EC50 of IGFBP4 cleavage (400 nM IGFBP4/700 nM IGF1) by PAPP-A (1267), gel-based assay, 37 °C, 4 h",PAPP-A (1267) (human),0.597 nM
PAPP-A triple mutant L1254A/F1257A/H1211A (enzyme),"EC50 of IGFBP4 cleavage (400 nM IGFBP4/700 nM IGF1) by the triple mutant, gel-based assay, 37 °C, 4 h",[2],2.6 nM
"PAPP-A^4C4S (C1112S, C1125S, C1130S and C1135S) (enzyme)","EC50 of IGFBP4 cleavage (400 nM IGFBP4/700 nM IGF1) by the variant, gel-based assay, 37 °C, 4 h",[3],0.402 nM
PAPP-A^1100-1135* (PAPP-A^1100-1135 replaced with PAPP-A2^1125-1162) (enzyme),"EC50 of IGFBP4 cleavage (400 nM IGFBP4/700 nM IGF1) by the variant, gel-based assay, 37 °C, 4 h",[4],0.954 nM
Wild type (WT) PAPP-A (auto-cleaved) (from UniProt Q13219 82-1627) (enzyme),stoichiometry N,[5],2
same,"EC50 of IGFBP4 cleavage (400 nM IGFBP4/700 nM IGF1) by WT PAPP-A, gel-based assay, 37 °C, 4 h",[6],0.026 nM
same,"EC50 (PAPP-A concentration) of proteolysis of 500 nM IGFBP5 K128A by WT PAPP-A, gel-based assay, 37 °C, 4 h",IGFBP5 K128A (human),1.3 nM
same,"EC50 (PAPP-A concentration) of proteolysis of 500 nM WT IGFBP5 by WT PAPP-A, gel-based assay, 37 °C, 4 h",FL IGFBP5 (human),0.053 nM
same,"EC50 (PAPP-A concentration) of proteolysis of 500 nM IGFBP5 K128D by WT PAPP-A, gel-based assay, 37 °C, 4 h",IGFBP5 K128D (human),15.3 nM
same,stoichiometry N,[7],2
same,Kd,[8],380 nM
catalytically inactive full-length (FL) PAPP-A (E483A) (enzyme),Kd,[9],250 nM
chimeric PAPP-A^1100-1111* (loop 2 replaced by amino acids 1125-1136 from PAPP-A2) (enzyme),"EC50 of IGFBP4 cleavage (400 nM IGFBP4/700 nM IGF1) by the variant, gel-based assay, 37 °C, 4 h",[10],0.519 nM
